In patent US20210032299A1 (Eli Lilly, published 2021) one finds Ki data, which are given here for one molecule.

Starred links: 1 amine or outer side, 2 acyl side, 3 side chain; linkers in the order of their positions; H or OH if unused. Non-standard residues stand in square brackets, D forms with d. Groups on a side chain read outwards from the residue. No end group written: not given here. *: point of attachment. C20 diacid = O=C(O)CCCCCCCCCCCCCCCCCCC(=O)*; γGlu = O=C(O)[C@H](CCC(=O)[*:2])N[*:1]; 4Pal = N[C@@H](Cc1ccncc1)C(=O)O; αMeL = CC(C)C[C@](C)(N)C(=O)O; Orn = NCCC[C@H](N)C(=O)O; AEEA = NCCOCCOCC(=O)O; Aib = CC(C)(N)C(=O)O

Experiment [1] deals with T1, human glucose-dependent insulinotropic polypeptide (GIP) receptor (human, UniProt P48546 22-466).
T1 construct: whole, on cells; Assayed as crude membranes of stably transfected CHO cells; also called hGIPR; human GIP receptor
T1 sequence (looked up): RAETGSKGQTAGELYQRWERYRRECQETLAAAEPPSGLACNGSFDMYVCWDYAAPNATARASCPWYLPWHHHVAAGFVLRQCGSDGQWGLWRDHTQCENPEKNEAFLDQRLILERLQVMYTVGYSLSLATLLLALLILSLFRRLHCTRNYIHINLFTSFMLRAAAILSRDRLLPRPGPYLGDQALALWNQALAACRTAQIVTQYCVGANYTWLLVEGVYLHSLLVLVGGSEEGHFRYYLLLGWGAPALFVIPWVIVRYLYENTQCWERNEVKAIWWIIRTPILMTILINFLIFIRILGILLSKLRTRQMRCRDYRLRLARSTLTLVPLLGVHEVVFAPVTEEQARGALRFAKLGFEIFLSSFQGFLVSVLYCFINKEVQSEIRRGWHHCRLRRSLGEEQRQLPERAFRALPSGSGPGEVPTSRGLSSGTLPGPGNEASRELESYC
Kind of experiment: SPA, displacement of [125I]-GIP from hGIPR membranes, 0.1% bacitracin. On the technique in general: Loss of bound radioactivity is the signal in a displacement assay; it reports binding, not function.

Experiment [2] has as its target T2, human glucagon receptor (human, UniProt P47871 26-477).
T2 construct: whole, on cells; Assayed as crude membranes of stably transfected HEK293 cells; also called hGcgR; GcgR
The experiment is described as follows: SPA, displacement of [125I]-Gcg from hGcgR membranes, 0.1% bacitracin. The gist of the method: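 Binding buffer: 25 mM HEPES pH 7.4, 2.5 mM CaCl₂, 1 mM MgCl₂, 0.003% Tween-20, protease inhibitors without EDTA. Counted by scintillation after 12 h incubation/settling at room temperature. Four-parameter nonlinear fit; Kᵢ given as geometric mean ± SEM of independent replicates run on different days.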

In experiment [3] the target is T3, human GLP-1 receptor (human, UniProt P43220 24-463).
T3 construct: whole, on cells; Assayed as crude membranes of stably transfected HEK293 cells; also called hGLP1R; hGLP-1R
The experiment is described as follows: SPA, displacement of [125I]-GLP-1 from hGLP-1R membranes, 0.1% bacitracin. In a few lines:
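Binding buffer: 25 mM HEPES pH 7.4, 2.5 mM CaCl₂, 1 mM MgCl₂, 0.1% bacitracin, 0.003% Tween-20, protease inhibitors without EDTA. Four-parameter nonlinear regression; Kᵢ given as geometric mean ± SEM, n = independent replicates run on different days.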

T2 sequence (P47871 26-477): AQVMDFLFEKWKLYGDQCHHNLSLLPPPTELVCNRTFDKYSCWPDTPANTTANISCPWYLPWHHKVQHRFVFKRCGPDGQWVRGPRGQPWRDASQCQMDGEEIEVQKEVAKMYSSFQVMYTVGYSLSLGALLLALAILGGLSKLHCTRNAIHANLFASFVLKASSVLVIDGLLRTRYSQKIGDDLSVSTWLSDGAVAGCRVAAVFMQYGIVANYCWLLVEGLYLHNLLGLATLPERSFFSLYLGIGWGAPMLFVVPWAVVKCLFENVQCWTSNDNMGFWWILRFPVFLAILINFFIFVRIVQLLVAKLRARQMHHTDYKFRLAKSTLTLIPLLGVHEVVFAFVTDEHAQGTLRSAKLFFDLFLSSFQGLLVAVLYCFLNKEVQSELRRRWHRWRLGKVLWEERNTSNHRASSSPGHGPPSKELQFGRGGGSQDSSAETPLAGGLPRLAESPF

B1: Example 82 (peptide)
peptide: Y[Aib]EGTFISDYSI[αMeL]LD[Orn]K([AEEA-AEEA-γGlu-C20 diacid])HQ[Aib]DFVE[4Pal]LLEGGPSSGAPPPS-NH2
modifications: N-terminus assumed
SMILES: CC[C@H](C)[C@H](NC(=O)[C@H](Cc1ccccc1)NC(=O)[C@@H](NC(=O)CNC(=O)[C@H](CCC(=O)O)NC(=O)C(C)(C)NC(=O)[C@@H](N)Cc1ccc(O)cc1)[C@@H](C)O)C(=O)N[C@@H](CO)C(=O)N[C@@H](CC(=O)O)C(=O)N[C@@H](Cc1ccc(O)cc1)C(=O)N[C@@H](CO)C(=O)N[C@H](C(=O)N[C@@](C)(CC(C)C)C(=O)N[C@@H](CC(C)C)C(=O)N[C@@H](CC(=O)O)C(=O)N[C@@H](CCCN)C(=O)N[C@@H](CCCCNC(=O)COCCOCCNC(=O)COCCOCCNC(=O)CC[C@H](NC(=O)CCCCCCCCCCCCCCCCCCC(=O)O)C(=O)O)C(=O)N[C@@H](Cc1c[nH]cn1)C(=O)N[C@@H](CCC(N)=O)C(=O)NC(C)(C)C(=O)N[C@@H](CC(=O)O)C(=O)N[C@@H](Cc1ccccc1)C(=O)N[C@H](C(=O)N[C@@H](CCC(=O)O)C(=O)N[C@@H](Cc1ccncc1)C(=O)N[C@@H](CC(C)C)C(=O)N[C@@H](CC(C)C)C(=O)N[C@@H](CCC(=O)O)C(=O)NCC(=O)NCC(=O)N1CCC[C@H]1C(=O)N[C@@H](CO)C(=O)N[C@@H](CO)C(=O)NCC(=O)N[C@@H](C)C(=O)N1CCC[C@H]1C(=O)N1CCC[C@H]1C(=O)N1CCC[C@H]1C(=O)N[C@@H](CO)C(N)=O)C(C)C)[C@@H](C)CC
Consider B1, for which the Ki (usually a measure of affinity in units of concentration, obtained from inhibition or displacement) is 0.0617 nM in experiment [1], 305 nM in experiment [2] and 388 nM in experiment [3].
